Biological target: the molecule itself
Experiment: crystal structure

B1: SARS-CoV main protease (M^pro) (enzyme)
chain: SGFRKMAFPSGKVEGCMVQVTCGTTTLNGLWLDDTVYCPRHVICTAEDMLNPNYEDLLIRKSNHSFLVQAGNVQLRVIGHSMQNCLLRLKVDTSNPKTPKYKFVRIQPGQTFSVLACYNGSPSGVYQCAMRPNHTIKGSFLNGSCGSVGFNIDYDCVSFCYMHHMELPTGVHAGTDLEGKFYGPFVDRQTAQAAGTDTTITLNVLAWLYAAVINGDRWFLNRFTTTLNDFNLVAMKYNYEPLTQDHVDILGPLSAQTGIAVLDMCAALKELLQNGMNGRTILGSTILEDEFTPFDVVRQCSGVTFQ
  binding result: binds
